From the DeepSol protein solubility set

test: soluble on expression in E. coli; label from the status in PepcDB or PDB records

Sequence | soluble on expression in E. coli
MSLRSKLFLILTLHRSGSSATAGVLYHLGVHMGQHLLKENESNPKGHFENEEFVAVNDRILHTIGGSWKKPPSPELIKQLKIPRRQVETFLLQHAKPAWGIKDPRMLLTFDLWKGPMERVADITYIIVHRPIKESIASLVRRNDMTELEAQQILLPYLGNKQRIREQLVEEGADIIDVHFSDLLQHPDELVAAVNQRLGRAPKKRLDDVRLFLDHSLKHEGHHHHHH | soluble
MTTLPPPATELSADEARRLALRAQGFLGAPDRRAGVRGVLRHLGAVQLDTISVLARSHELIPYARLGAVGRRTVDDAYWTDTHAFEYWSHAACILPIEEWPHFAFRRRAYRNRPHWNHHLPEGDYDRVVKQLREEGPLTATDLGGAKRTSEWWDWSGTKVAVERALMYGEVVCVERRGWKRVYDLAERAVPAALLHDDLDDTECLRRLVRLAGQSLGVGTRADIADYHRLKAEQVDAVIADSGLVPVTVAGWGRPAWADPAALETVPRGRHRTTLLSPFDSLIWERARTERIFGFTHRLEAYVPRQKRVHGYFAMPVLAGGRLVGRVDPAREGRTLVAKQVTLDGPKAAPAVAQALVEAAGWVDCTNVRVERVETPDLREPLARELARLLDLEHHHHHH | not soluble
MDHSLNSLNNFDFLARSFARMHAEGRPVDILAVTGNMDEEHRTWFCARYAWYCQQMMQARELELEH | soluble
MLWPFRWVWWKRVLTSQTRAPAKPNPLTVPPTCTWWSLRKLPNPTKLDDDLKNLLDPNEVRARMLKSFGTENFTQPQPQPQALKTTTPVFGTSSGNLGSVLSGGGYHAGLKHHQSTVTRSTGEWVDR | soluble
MKTWPAPTAPTPVRATVTVPGSKSQTNRALVLAALAAAQGRGASTISGALRSRDTELMLDALQTLGLRVDGVGSELTVSGRIEPGPGARVDCGLAGTVLRFVPPLAALGSVPVTFDGDQQARGRPIAPLLDALRELGVAVDGTGLPFRVRGNGSLAGGTVAIDASASSQFVSGLLLSAASFTDGLTVQHTGSSLPSAPHIAMTAAMLRQAGVDIDDSTPNRWQVRPGPVAARRWDIEPDLTNAVAFLSAAVVSGGTVRITGWPRVSVQPADHILAILRQLNAVVIHADSSLEVRGPTGYDGFDVDLRAVGELTPSVAALAALASPGSVSRLSGIAHLRGHETDRLAALSTEINRLGGTCRETPDGLVITATPLRPGIWRAYADHRMAMAGAIIGLRVAGVEVDDIAATTKTLPEFPRLWAEMVGPGQGWGYPQPRSGQRARRATGQGSGGKLAAALEHHHHH | soluble
MEILIATGRLAENTVRKAAGEKADVLVADIDIAAFITPKKLTRAFEEAGLSKKYDLILLPGLVPGDFSKVSDELDCKIRLGPKHAYDLGFVLRFAEEVEFSVKVPACELLADVRKEEALELIREAEEEAVSPLSLRGVKLGGNSRMKVMGEIVGAAELNPADLEIKIEAFIARGADIIDLGATLNTLPGQVRSTVFLAKSLTDIPISIDTLDPELIKEGIEAGADLVLSLNSTNMETAGSVVAKAGVAAVIIPDEGNSLESLVNNIESARRLGIERIIADPILDPVGHNITESIVRYHEFHRRYPDIPLFFGAGNVTELMDVDTIGVNATLCGIGAETGASILFTPEYSDKAQGSIGELKKASEMMQLCRIRESSPKDLGIDLLFIKEKRKRPDSPLPKKVITARASKNWRQDPAGPIRVRIVPDKINGNGGLIVAEHEKAAIAGESAREVMDTLIELELVSSLDHAAYLGRELEKAELALRFNRSYAQDDIF | not soluble
MKVYLHFSPQFFANTYLIGNEITKEAVIIDPAKITEKMIHQIEKNEFNLKAVLLTHDLEHPYETGLNTILKIYSPKVYAGSCFSENVTINTLRGDGCIDVAGYSVRYFAIPAHSSYSYMFQIENMVFTGTSLSAGMIGQTSNMYAERTLRNILKTKLMCFEDNLIIMPFYGPPTSIGVERKYNASFFQDFEKKPFLEHHHHHH | soluble
MGSDKIHHHHHHMNFLDGHLFPENQQPLIITAAPYAPSWMPSDFPEDIAVTMEDQIQKAVDCYNAGATVLHLHVRELDGKGSKRLSKFNELIAGVRARVPEMIIQVGGSISFAPESEGAAAKWLSDDTRHMLAELEPTPDQVTVTVNTSQMNILEQFDHRDIVGSSMEDPEVFNAYKEMTVPAQPGWVEEHVRRLTAAGIQSAFQCYNLNSFESVERLMRRGIYKGPLVLNWVAIGGGMDSPSVYSLANFVRAVPDGAVLTVESSVCNVLPVNTMGIAMGLHVRCGTEDTLWNQTRTKKMGTVAQIEQLVRISEEMSRPIATARQAREMCRIGEFYDTVDETLQANGFAPNRNGGQQGFLRKVA | not soluble
MAHHHHHHMNSKDTNELKRGAGYLKEKAIIGLTRVTGNELDRAIYKVTSHKLKAPKEKHMQRVLAATRGYSSQKTHKGRNTCEYIVSEFEKRLHTHNWIVVLKTLVTFHRLMKDGSDEVNNCIQQNRNIFCFRNIKDLSESSEGAVQSVFIRQYMYYLEERSSSQRKLGASKRMENSEFGVFLRSLDVDTLGPVFESLLVQLSALVEVQYKEAIVDNFCTMEAFQRLVNDGKLLYQILSDRAIFILDGFSGFTLQQKKDWVRRYREYTVVGERLRLLFESIANSKRMFDEPPPPLKALPGSLLESLEREVRLSSIAHEDITETLESLGITADEKTPLKATTSDGTMAIYSPVATEKALDTTETGAPPVTEPKKESGFSIDDLFVPPPVTDSHQQTSYNPSTIPQGTQMEGPLIQTEANPNMTYTFPTGVPVGQNFFGQQPTGNSLTWEAPSPAPGSMQPQSAAGIVPSWSDSSASWGRGNCGSNTVDPFKDLYASQKGGQ | soluble
MDHSPWQRCLSVLQEELPAQQFSMWIRPLQCVINDNVMTLYAPNRFVLDWVRDKYVNRINELLTINESNNPLLLRFDVGSKPTIDNSVTNSPVSRNTGGNESLFAKATSAPKVAEPESNIPKKTNVRLNYTFENFVEGKSNQLARAAASQVADNPGTAYNPLFIYGGTGLGKTHLLHAVGNGILLNKPNAKIAYMHSERFVQDMVRALQNNAMEKFKQYYRSVDALLIDDIQFFAGKERTQEEFFHTFNALLEGNQQVILTSDRYPKEINGVDDRLKSRFGWGLTLAIEPPELETRVAILKRKAQESQINLADEVAFFIAKRLRSNVRELEGALNRVIANANFTGRAITIDFVREALRDLLALQDKLVTIDNIQRTVAEYYKIKIADLLSKRRNRSVARPRQIAMALSKELTNHSLPEIGDAFGGRDHTTVLHACRKVKSLREETHDIKEDYSNLIRTLSSLEHHHHHH | not soluble
MERIAMNPLMQQAIQFANDHETAWDRSVRGNFGVHLDDPPPWNRLLGPVHDRGPVSGVVVVDGQTLASWGEPERADLTFSVAKLYLSILAGVAHDRGLLPDVDEPVGRRVPGIGFDAGRNARITWRHLLQQTSEWEGERFGVPDQADRYRAVAFGIPPDGRKGDARPLQEPGTYWEYNDVRINQLSYALLHLFRRPLPEVFREAVTRPLGASEDWQWVGYDNAWVDIDGVRMPSVPGGTHWGGGMSISARDQALIGRMLLDEGRAADGRQVLSPAWIQAMRTPCDIAPYYGYLIWLNHERKVFPSVPASSFFGIGAGSSFTWVEPERRMVVIVRWLDAAYADALFGRILAAVDAHRAGLEHHHHHH | not soluble
MGSDKIHHHHHHMPLYQPLTPRLFMRQWRASDLPCFARMNADRRVMRFFPASLTRRQSDAMAERCSMLIDSQGWGFWAVEERSSGLFAGMVGLHRPSGDLPFAPCVEVGWRLDPDHWGKGYATEAAAAALDIAFNTLGLHEVVAFTAVLNTPSQAVMRRLGMRHAMDFEHPAVPADSPLRAHCLYRTDKEEHQRRHGL | not soluble
MGSDKIHHHHHHMLMSVTTENAPVQGQTTLQENSAGEGVYASLFEKINLTPASCLGDINDFLDDAALSEAPAAERLTAAMQVFMERIRQSGQRVEKLDKTLIDHHIAELDFQISRQLDAVMHHQEFQQVESLWRGLKQLVDNTDYRQNVKTEILDVAKDDLRQDFEDAPELIQSGLYWHTYTAEYDTPGGEPIGSVISAYEFDASPQDVALLRNISRVSAAAHMPFIGAVGPAFFLKETMEEVAAIKDIGNYFDRAEYIRWKAFRETDDARYIGLVMPRVLGRLPYGPDTVPVRSFNYVEQVKGPDHEKYLWTSAAFSFASNMVKSFVNNGWCVQIRGPQAGGAVKDLPIHLYDLGTGNQVKIPSEVMIPETREFEFASLGFIPLSYYKNRDYACFFSANSAQKPALYDTADATANSRINARLPYIFLLSRIAHYLKMIQRENIGTTKDRRLLELELNTWVRSLVTEMTDPGDELQASHPLRDASVVVEDIEDNPGFFRVKLYAVPHFQVEGMDVNLSLVSQMPKAKA | not soluble
ASHHLRMHFKTLPAGESLGSLGLWVWGDVDQPSKDWPNGAITMTKAKKDDYGYYLDVPLAAKHRQQVSYLINNKAGENLSKDQHISLLTPKMNEVWIDENYHAHAYRPLKEGYLRINYHNQSGHYDNLAVWTFKDVKTPTTDWPNGLDLSHKGHYGAYVDVPLKEGANEIGFLILDKSKTGDAIKVQPKDYLFKELDNHTQVFVKDTDPKVYNNPYYID | soluble
MANLTEKFLRIFARRGKSIILAYDHGIEHGPADFMDNPDSADPEYILRLARDAGFDGVVFQRGIAEKYYDGSVPLILKLNGKTTLYNGEPVSVANCSVEEAVSLGASAVGYTIYPGSGFEWKMFEELARIKRDAVKFDLPLVVESFPRGGKVVNETAPEIVAYAARIALELGADAMKIKYTGDPKTFSWAVKVAGKVPVLMSGGPKTKTEEDFLKQVEGVLEAGALGIAVGRNVWQRRDALKFARALAELVYGGKKLAEPLNV | soluble
MFTHVESFKSAFLEKLETMYGKSFKDSTTRDQYNTLGYMVREYMNSQWIATNESYRSGERKQMYYLSIEFLLGRLLGSNILNLGIRDVCEQGLSELGISLQQLEEVEADAGLGNGGLGRLAACFLDSLASLDLPGHGCGIRYKHGLFDQKIVDGYQVEFPEQWLLHENVWEVRRHDQAVEVSYFGNVEPLYIDGRLEFRHTNAEVIMAVPYDVPVVGYETSTVNTLRLWNAEPVPFPQNCKDILKYKRETEAVSEFLYPDDTHDEGKILRLKQQYFLVSASLQNIVRLHRERYGDLRQLHEKIAIHINDTHPVLAIPELMRILLDEEKLAWEEAWHITTQTISYTNHTTLSEALEKWPIHIFKPLLPRIYMIIEEINERFCHELWERYPYEWHRIEEMAIIAHDLVKMAHLAIVGSHSVNGVAKIHTEILKQREMRLFYEFYPDKFNNKTNGIAHRRWLMKANPQLTNLISEAIGTEWKKEPIKLQELQLVQYDASFQEKFAEVKQERKEILAERIHNTMGITIDPNSIFDVQVKRLHAYKRQLLNVLHILYLYNRLKEDASFTFYPRTFIFGAKASPGYYYAKKIIKLINELARKVNNDPYVSQYMKVIFLENYRVSLAEDIFPAADVSEQISTASKEASGTGNMKFMMNGAITLGTLDGANIEIKDRVGDDNCFIFGLTAEEVLHYYQNGGYRASDYYHHNGHIKKVVDQLTNGFFAQSGAEFEAIYDSLVIQNDEYFVLRDFGPYAERQEAVGRAYENRTKWLEMSILNIAQSGHFASDRTILQYSNEIWGIGNTVTQI | not soluble
MDALVEDDICILNHEKAHKRDTVTPVSIYSGDESVASHFALVTAYEDIKKRLKDSEKENSLLKKRIRFLEEKLIARFEEETSSVGREQVNKAYHAYREVCIDRDNLKSKLDKMNKDNSESLKVLNEQLQSKEVELLQLRTEVETQQVMRNLNPPSSNWEVEKLSCDLKIHGLEQELELMRKECSDLKIELQKAKQTDPYQEDNLKSRDLQKLSISSDNMQHAYWELKREMSNLHLVTQVQAELLRKLKTSTAIKKGKSLFTGNH | soluble
